Data reported in US20240409663A1 (CONCEPT TO MEDICINE BIOTECH, published 2024).

Tests used:
human GPC3 on cells [1] = target: T1, human GPC3 on cells (human, UniProt P51654 25-554); experiment: FACS, HEPG2 cells
T1 construct: whole, on cells; over-expressed on CHOK1 cells or endogenous on HEPG2, Hep3B and Huh-7 hepatocellular carcinoma cells; the cell line is named under assay; also called GPC3-CHOK1 cells; human GPC3 over-expressed CHOK1 cells
Procedure: (§1) Cell-based binding: FACS was used to evaluate the binding activity of 52H5D3B8 chimeric mAbs with comparison to a known GPC3 antibody GC33 (Chugai Pharmaceutical) on human GPC3 over-expressed CHOK1 cells, HEPG2 cells, Hep3B cells and Huh-7 cells.
(§2) Briefly, GPC3-CHOK1 cells, HEPG2 cells, Hep3B cells or Huh-7 cells were firstly incubated with Fc blocking reagent at 4° C. for 15 mins. Cells were washed by FACS buffer and divided to each well with 3-fold serially diluted 52H5D3B8 chimeric mAbs or GC33 mAb starting at 30 μg/mL at 4° C. for 60 mins. Cells were washed by FACS buffer and fixed with 2% PFA at RT for 15 mins. […] Samples were washed twice with FACS buffer.

human GPC3 on cells [2] = target: T1, human GPC3 on cells; experiment: FACS, Hep3B cells
Procedure: as §1, §2

human GPC3 on cells [3] = target: T1, human GPC3 on cells; experiment: FACS, Huh-7 cells
Procedure: as §1, §2

human GPC3 on cells [4] = target: T1, human GPC3 on cells; experiment: FACS, Hep3B cells; remark: listed apart in the source
Procedure: (§3) Cell-based binding: FACS was used to evaluate the binding activity of 52H5D3B8, 52H5D3B8-6 # chimeric mAbs and GC33 antibody on human GPC3 over-expressed CHOK1 cells, Hep3B cells and Huh-7 cells.
as §2, with “GPC3-CHOK1” for “GPC3-CHOK1 cells, HEPG2”, “diluted 52H5D3B8, 52H5D3B8-6 #” for “diluted 52H5D3B8”, “GC33 antibody” for “GC33 mAb”

human GPC3 on cells [5] = target: T1, human GPC3 on cells; experiment: FACS, Huh-7 cells; remark: listed apart in the source
Procedure: as §3
as §2, with “GPC3-CHOK1” for “GPC3-CHOK1 cells, HEPG2”, “diluted 52H5D3B8, 52H5D3B8-6 #” for “diluted 52H5D3B8”, “GC33 antibody” for “GC33 mAb”

human GPC3 on cells [6] = target: T1, human GPC3 on cells; experiment: FACS, Huh-7 cells; remark: listed apart in the source
Summary of the method: (§4)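 Cells Fc-blocked 15 mins at 4° C, then incubated 60 mins at 4° C with antibodies in 4-fold serial dilutions from 10 μg/mL. Washed and fixed in 2% PFA before FACS read-out; antibodies split over two plates.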

human GPC3 on cells [7] = target: T1, human GPC3 on cells; experiment: FACS, GPC3-CHOK1 cells
Procedure: Cell-based binding: FACS was used to evaluate the binding activity of chimeric mAbs (18C1D9, 52H5D3B8, 163E7D12, 172B4E9, 152E9F7 and 171F9C5) with comparison to a known GPC3 antibody GC33 (Chugai Pharmaceutical) on human GPC3 over-expressed CHOK1 cells.
Briefly, GPC3-CHOK1 cells were washed by FACS buffer and divided to each well with 3-fold serially diluted chimeric mAbs or GC33 mAb starting at 5 μg/mL at 4° C. for 40 mins. […] Samples were washed twice with FACS buffer.

human GPC3 on cells [8] = target: T1, human GPC3 on cells; experiment: FACS, GPC3-CHOK1 cells; remark: listed apart in the source
Procedure: as §1, §2

human GPC3 on cells [9] = target: T1, human GPC3 on cells; experiment: FACS, GPC3-CHOK1 cells; remark: listed apart in the source
Summary of the method: as §4

human GPC3 on cells [10] = target: T1, human GPC3 on cells; experiment: FACS, GPC3-CHOK1 cells; remark: listed apart in the source
Procedure: To evaluate the antigen binding property, the humanized antibodies were analyzed for their binding to human GPC3 over-expressed CHOK1 cells and Huh-7 cells by FACS. Briefly, GPC3-CHOK1 cells and Huh-7 cells were firstly incubated with Fc blocking reagent at 4° C. for 15 mins. Cells were washed by FACS buffer and divided to each well with 4-fold serially diluted humanized antibodies starting at 10 μg/mL at 4° C. for 60 mins. Cells were washed by FACS buffer and fixed with 2% PFA at RT for 15 mins. […] As different plates might affect the EC50 of 52H5D3B8-VH+VL, the 12 humanized antibodies were separated into two plates.

mouse GPC3 protein = target: T2, mouse GPC3 protein (mouse, UniProt Q8CFZ4 25-558, limits assumed); experiment: ELISA, coated mouse GPC3
T2 construct: protein coated on plates in the cross species ELISA
Procedure: ELISA testing was carried out to evaluate the binding of chimeric antibodies to human, mouse and cynomolgus GPC3, respectively.
Briefly, microtiter plates were coated with human, mouse and cynomolgus GPC3 proteins at 1 μg/ml in PBS, 100 μl/well at 4° C. overnight, then blocked with 150 μl/well of 1% BSA. Three-fold dilutions of chimeric antibodies starting from 9 μg/ml were added to each well and incubated for 1 hour at 37° C. The plates were washed with PBS/Tween and then incubate with mouse-anti-human IgG Fc antibody conjugated with Horse Radish Peroxidase (HRP) for 30 mins at 37° C. After washing, the plates were developed with TMB substrate and analyzed by spectrophotometer at OD 450 nm. The 52H5D3B8 antibody bound to human, cynomolgus GPC3 and mouse GPC3 (FIG. 3 and Table 4).

[11] = target: T3, human GPC3-his tag protein (human, UniProt P51654 25-559, limits assumed); experiment: SPR Biacore 8K, mAb captured, affinity ranking
T3 construct: recombinant soluble antigen used as analyte in all Biacore runs; also called recombinant GPC3 protein; rhGPC3-His; not shown: His tag
Procedure: To evaluate antigen binding activity, the chimeric antibody's affinity was measured by Biacore 8K. Two concentrations with most close affinity to the chimeric antibody's affinity were chosen for the 12 humanized antibodies' affinity detection. Human GPC3-his tag protein was injected over captured antibody for 3 mins at a flow rate of 30 μl/min. The antigen was allowed to dissociate for 720 s.

[12] = target: T3, human GPC3-his tag protein; experiment: SPR Biacore 8K, mAb captured on CM5, GPC3-his dilution series
Procedure: The binding of the chimeric 52H5D3B8 mAb to human GPC3-his was tested with Biacore using a capture method. The 52H5D3B8 mAb was captured using CM5 sensor chip. A serial dilution of human GPC3-his tag protein was injected over captured antibody for 2 mins at a flow rate of 30 μl/min. The antigen was allowed to dissociate for 360 s. All the experiments were carried out on a Biacore 8K. Data analysis was carried out using Biacore 8K evaluation software.

T2 sequence (Q8CFZ4 25-558 limits assumed): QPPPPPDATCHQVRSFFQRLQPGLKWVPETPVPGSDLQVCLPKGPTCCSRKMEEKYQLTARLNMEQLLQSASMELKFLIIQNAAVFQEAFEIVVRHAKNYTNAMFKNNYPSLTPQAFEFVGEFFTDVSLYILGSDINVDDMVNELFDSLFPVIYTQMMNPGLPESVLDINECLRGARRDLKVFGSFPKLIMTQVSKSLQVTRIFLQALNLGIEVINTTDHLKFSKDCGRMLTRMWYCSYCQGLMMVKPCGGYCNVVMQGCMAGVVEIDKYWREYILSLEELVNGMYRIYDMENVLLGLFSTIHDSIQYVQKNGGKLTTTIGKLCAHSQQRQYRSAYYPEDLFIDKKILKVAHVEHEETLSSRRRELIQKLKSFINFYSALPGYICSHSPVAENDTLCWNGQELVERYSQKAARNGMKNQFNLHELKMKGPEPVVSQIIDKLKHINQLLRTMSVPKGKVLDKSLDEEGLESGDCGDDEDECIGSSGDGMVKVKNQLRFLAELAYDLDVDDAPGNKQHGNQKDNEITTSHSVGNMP

EC50 (human GPC3 on cells [1]): 0.111 µg/mL
EC50 (human GPC3 on cells [2]): 0.192 µg/mL
EC50 (human GPC3 on cells [3]): 0.0986 µg/mL
EC50 (human GPC3 on cells [4]): 0.217 µg/mL
EC50 (human GPC3 on cells [5]): 0.0795 µg/mL
EC50 (human GPC3 on cells [6]): 0.0469 µg/mL
EC50 (human GPC3 on cells [7]): 0.0909 µg/mL
EC50 (human GPC3 on cells [8]): 0.0922 µg/mL
EC50 (human GPC3 on cells [9]): 0.0477 µg/mL
EC50 (human GPC3 on cells [10]): 0.0479 µg/mL
EC50 (mouse GPC3 protein): 4.95 µg/mL
Kd [11]: 1.41 nM
koff [11]: 0.00049 s⁻¹
kon [11]: 347000 M⁻¹ s⁻¹
Kd [12]: 0.843 nM
koff [12]: 0.000466 s⁻¹
kon [12]: 552000 M⁻¹ s⁻¹
B1: 52H5D3B8 chimeric mAb (antibody, V domains shown)
VH: QVQLQQSGAELVRPGASVKLSCKALGYTFTDYEMHWVKQTPVHGLEWIGAIHPGSGGTAYNQKFKGKATLTADKFSSTGYMELSSLTSEDSAVYYCTRFYSYAYWGQGTLVTVSA
VL: DVVMTQTPLSLPVSLGDQASISCRSSQSLVHSNGNTYLQWYLQKPGQSPKLLIYKVSNRFSGVPDRFSGSGSGTDFILKISRVEAEDLGVYFCSQSIHVPYTFGGGTKLEIK
notes: also called 52H5D3B8-VH+VL; chimeric 52H5D3B8 mAb
